{"source": "patent US20160039921A1", "about": "(published 2016)", "binders": {"B1": {"name": "murine PV19 monoclonal antibody (antibody, V domains shown)", "VH": "QPGGAFWMCVSGGKVTISCKASGYSFTNSGINWVKQAPGKGLKWMGWINTYTGEPTYADDFKGRFAFSLETSASSAYLQINNLKNEDTATYFCARFGDGYYWFFDVWGAGTTVTVS", "VL": "DIVMSQSPSSLAVSAGEKVTLSCKSSQSLLNSRTRKNFLAWYQQKPGQSPKLLIYWASTRESGVPDRFTGSGSGTDFTLTISSVQAEDLAVYYCKQSYNLYTFGGGPT"}}, "molecular_target": "T1, recombinant human VEGF165 protein (human, UniProt P15692 27-191)", "T1 chain": "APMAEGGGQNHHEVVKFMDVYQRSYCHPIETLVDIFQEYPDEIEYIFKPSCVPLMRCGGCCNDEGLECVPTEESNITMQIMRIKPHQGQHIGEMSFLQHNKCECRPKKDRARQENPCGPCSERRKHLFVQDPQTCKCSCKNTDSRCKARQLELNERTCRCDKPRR", "assay": "competitive ELISA (blocking of biotin-VEGF binding to VEGFR1)"}
{"binder": "B1", "values": [{"measurement": "IC50", "result": "< 1", "unit": "nM"}]}
